The values that follow are results of earlier work, collected in article PMC6753016.

In data set [1] the target is Matriptase (Homo sapiens) (UniProt Q9Y5Y6).
Data set [2] has as its target Cathepsin G (Homo sapiens) (UniProt P08311).
For data set [3], the target named is Trypsin (Bos taurus) (UniProt P00760).
Data set [4] has as its target Kallikrein 14 (Homo sapiens) (UniProt Q9P0G3).
In data set [5] the target is Kallikrein 7 (Homo sapiens) (UniProt P49862).
In data set [6] the target is Kallikrein 5 (Homo sapiens) (UniProt Q9Y337).
Data set [7] deals with Trypsin (Bos taurus) (UniProt P00760). The source holds these as a separate data set.
The target of data set [8] is Factor XIIa (Homo sapiens) (UniProt P00748).
For the next data set, the target named is β-Trypsin (Bos taurus) (UniProt P00760).
The target of data set [9] is Cathepsin H (UniProt P09668).
Target sequence in this assay (P09668 whole entry, looked up): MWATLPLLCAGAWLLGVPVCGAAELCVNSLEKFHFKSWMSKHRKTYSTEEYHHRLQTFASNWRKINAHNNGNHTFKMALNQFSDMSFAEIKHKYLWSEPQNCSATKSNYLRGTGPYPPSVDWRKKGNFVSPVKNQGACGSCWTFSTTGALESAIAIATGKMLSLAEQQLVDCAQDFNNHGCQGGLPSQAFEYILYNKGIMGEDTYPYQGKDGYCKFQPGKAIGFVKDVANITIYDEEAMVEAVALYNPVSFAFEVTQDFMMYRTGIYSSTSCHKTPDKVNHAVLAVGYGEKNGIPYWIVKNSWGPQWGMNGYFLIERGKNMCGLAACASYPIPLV
The target in data set [10] is Cathepsin B (UniProt P07858).
The target of data set [11] is Cathepsin H (UniProt P09668). The source holds these as a separate data set.
Target sequence in this assay (P09668 116-335): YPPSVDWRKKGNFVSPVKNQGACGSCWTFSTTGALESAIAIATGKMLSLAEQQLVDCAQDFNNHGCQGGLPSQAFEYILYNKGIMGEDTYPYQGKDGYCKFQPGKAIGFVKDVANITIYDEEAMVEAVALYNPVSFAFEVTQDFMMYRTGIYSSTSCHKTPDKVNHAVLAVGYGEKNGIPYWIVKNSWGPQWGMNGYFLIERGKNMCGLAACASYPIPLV
Data set [12] has as its target Cathepsin L (UniProt P07711).
Target sequence in this assay (P07711 114-288, chain 1 of 2): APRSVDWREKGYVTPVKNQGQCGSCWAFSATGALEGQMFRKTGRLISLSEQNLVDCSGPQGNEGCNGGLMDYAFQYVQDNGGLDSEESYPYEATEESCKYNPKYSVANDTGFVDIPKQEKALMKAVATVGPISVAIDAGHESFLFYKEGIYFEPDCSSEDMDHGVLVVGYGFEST
Target sequence in this assay (P07711 292-333, chain 2 of 2): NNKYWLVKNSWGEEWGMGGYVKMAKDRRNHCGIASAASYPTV
Data set [13] has as its target Cathepsin B (UniProt P07858). The source holds these as a separate data set.
For data set [14], the target named is Cathepsin L (UniProt P07711). This is another data set of the same source.
Target sequence in this assay (P07711 292-333): as the sequence (P07711 292-333, chain 2 of 2) above
Data set [15] concerns the target Cathepsin H (UniProt P09668). This is another data set of the same source.
Target sequence in this assay (P09668 whole entry, looked up): as the sequence (P09668 whole entry, looked up) above
Data set [16] has as its target Cathepsin H (UniProt P09668). The source holds these as a separate data set.
Target sequence in this assay (P09668 116-335): as the sequence (P09668 116-335) above
Data set [17] concerns the target Cathepsin L (UniProt P07711). The source holds these as a separate data set.
Target sequence in this assay (P07711 292-333): as the sequence (P07711 292-333, chain 2 of 2) above
Data set [18] concerns the target Cathepsin L (UniProt P07711). The source holds these as a separate data set.
Target sequence in this assay (P07711 114-288, chain 1 of 2): as the sequence (P07711 114-288, chain 1 of 2) above
Target sequence in this assay (P07711 292-333, chain 2 of 2): as the sequence (P07711 292-333, chain 2 of 2) above
The target in data set [19] is Porcine elastase (Sus scrofa) (UniProt P00772).

Where two headings read alike, the source gives them in different places.

Sequence of Corn cystatin-I (P31726 25-135): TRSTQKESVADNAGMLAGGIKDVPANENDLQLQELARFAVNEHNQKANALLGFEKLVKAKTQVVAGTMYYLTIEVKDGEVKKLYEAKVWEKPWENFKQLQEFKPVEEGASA
Sequence of Corn Hageman factor inhibitor (P01088 29-138): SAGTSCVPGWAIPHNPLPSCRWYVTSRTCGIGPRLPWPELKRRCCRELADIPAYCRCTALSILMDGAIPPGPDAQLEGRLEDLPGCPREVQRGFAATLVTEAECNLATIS
Sequence of Trypsin (Bos taurus) (P00760 149-246): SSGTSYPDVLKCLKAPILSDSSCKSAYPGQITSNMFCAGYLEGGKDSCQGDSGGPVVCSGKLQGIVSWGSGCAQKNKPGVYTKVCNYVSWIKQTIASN
Sequence of Kallikrein 5 (Homo sapiens) (Q9Y337 23-293): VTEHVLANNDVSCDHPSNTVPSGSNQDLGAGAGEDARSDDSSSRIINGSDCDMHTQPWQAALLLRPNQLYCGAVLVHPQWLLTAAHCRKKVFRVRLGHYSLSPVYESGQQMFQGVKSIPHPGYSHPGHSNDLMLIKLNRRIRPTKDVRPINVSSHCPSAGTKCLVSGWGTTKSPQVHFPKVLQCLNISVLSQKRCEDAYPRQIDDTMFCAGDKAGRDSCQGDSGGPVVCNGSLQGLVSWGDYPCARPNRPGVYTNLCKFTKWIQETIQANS
Sequence of Kallikrein 14 (Homo sapiens) (Q9P0G3 41-267): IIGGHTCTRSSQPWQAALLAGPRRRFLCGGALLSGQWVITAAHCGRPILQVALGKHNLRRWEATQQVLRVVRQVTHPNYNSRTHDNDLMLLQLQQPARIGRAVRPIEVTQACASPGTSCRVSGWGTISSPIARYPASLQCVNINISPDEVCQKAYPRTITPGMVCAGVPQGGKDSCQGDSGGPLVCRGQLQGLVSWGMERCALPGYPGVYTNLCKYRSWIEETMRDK
Sequence of Factor XIIa (Homo sapiens) (P00748 whole entry, looked up): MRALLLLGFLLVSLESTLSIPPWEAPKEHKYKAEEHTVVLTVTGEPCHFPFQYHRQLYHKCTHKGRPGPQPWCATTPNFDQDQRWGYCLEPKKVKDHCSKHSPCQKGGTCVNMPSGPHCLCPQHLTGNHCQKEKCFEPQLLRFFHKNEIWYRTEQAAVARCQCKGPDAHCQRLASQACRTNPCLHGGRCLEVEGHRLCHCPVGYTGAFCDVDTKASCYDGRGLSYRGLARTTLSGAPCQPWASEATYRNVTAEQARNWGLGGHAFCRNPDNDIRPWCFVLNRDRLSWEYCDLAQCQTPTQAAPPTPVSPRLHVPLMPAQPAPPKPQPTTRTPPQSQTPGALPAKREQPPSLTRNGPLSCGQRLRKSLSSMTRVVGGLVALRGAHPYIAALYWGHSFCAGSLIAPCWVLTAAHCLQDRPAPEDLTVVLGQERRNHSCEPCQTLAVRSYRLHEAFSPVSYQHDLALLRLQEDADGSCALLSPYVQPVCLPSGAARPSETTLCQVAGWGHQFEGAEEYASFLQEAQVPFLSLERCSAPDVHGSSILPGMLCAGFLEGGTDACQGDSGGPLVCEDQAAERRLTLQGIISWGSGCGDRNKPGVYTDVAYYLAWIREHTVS
Sequence of Porcine elastase (Sus scrofa) (P00772 27-266): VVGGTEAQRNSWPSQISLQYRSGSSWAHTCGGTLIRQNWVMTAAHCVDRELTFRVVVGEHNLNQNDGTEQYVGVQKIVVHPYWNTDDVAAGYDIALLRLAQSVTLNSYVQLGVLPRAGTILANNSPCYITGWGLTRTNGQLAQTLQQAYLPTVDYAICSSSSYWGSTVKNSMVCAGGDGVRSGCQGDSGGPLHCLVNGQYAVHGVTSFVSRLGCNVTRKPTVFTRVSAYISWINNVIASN
Sequence of Kallikrein 7 (Homo sapiens) (P49862 30-253): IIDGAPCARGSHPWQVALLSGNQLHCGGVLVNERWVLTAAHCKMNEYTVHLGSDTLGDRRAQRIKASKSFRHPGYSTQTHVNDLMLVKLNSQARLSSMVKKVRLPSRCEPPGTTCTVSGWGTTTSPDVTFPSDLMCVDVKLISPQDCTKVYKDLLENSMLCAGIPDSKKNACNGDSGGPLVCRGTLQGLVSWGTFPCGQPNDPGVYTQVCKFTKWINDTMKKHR
Sequence of Cathepsin G (Homo sapiens) (P08311 21-243): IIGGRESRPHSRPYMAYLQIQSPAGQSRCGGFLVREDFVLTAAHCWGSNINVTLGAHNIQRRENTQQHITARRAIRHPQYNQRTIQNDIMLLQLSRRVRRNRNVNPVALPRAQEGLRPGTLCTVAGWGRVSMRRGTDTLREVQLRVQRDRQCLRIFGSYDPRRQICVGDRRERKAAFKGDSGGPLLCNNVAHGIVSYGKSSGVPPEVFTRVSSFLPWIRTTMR
Sequence of β-Trypsin (Bos taurus) (P00760 149-246): as the sequence (P00760 149-246) above
Sequence of MCEI-III (P10296 2-31): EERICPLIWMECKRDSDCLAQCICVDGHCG
Sequence of Matriptase (Homo sapiens) (Q9Y5Y6 whole entry): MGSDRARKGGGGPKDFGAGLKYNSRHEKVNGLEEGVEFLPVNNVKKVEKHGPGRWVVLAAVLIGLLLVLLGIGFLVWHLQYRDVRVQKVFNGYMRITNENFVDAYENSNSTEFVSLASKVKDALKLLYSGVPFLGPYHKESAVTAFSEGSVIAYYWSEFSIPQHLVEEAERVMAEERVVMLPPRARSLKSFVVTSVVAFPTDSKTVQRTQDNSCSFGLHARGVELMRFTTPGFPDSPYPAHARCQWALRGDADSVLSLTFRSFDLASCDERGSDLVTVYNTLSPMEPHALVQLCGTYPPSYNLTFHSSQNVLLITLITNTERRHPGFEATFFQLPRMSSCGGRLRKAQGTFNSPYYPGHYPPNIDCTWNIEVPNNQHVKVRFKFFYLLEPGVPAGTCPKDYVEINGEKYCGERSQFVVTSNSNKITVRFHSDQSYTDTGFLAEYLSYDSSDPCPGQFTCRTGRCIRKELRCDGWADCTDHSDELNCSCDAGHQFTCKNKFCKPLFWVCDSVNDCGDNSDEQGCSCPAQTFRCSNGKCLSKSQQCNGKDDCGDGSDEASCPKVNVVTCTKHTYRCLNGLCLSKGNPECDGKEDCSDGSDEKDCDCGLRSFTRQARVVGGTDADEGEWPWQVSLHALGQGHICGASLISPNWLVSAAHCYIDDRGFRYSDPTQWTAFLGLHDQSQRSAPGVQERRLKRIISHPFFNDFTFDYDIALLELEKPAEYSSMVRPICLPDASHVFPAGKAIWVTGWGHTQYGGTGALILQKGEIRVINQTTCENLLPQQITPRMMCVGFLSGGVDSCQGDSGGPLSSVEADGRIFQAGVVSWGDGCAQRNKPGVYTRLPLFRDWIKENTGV
Sequence of MTI-2 (P26780 31-93): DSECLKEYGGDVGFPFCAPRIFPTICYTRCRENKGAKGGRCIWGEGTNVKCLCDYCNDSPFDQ

As for SFTI-I (from UniProt Q4GWU5), the Ki in data set [1] was 200 nM; in [2], 730 nM; in the data set with Trypsin (Bos taurus) [3], 0.17 nM; in [4], 25 nM; in data set [5], 740 nM; in [6], 140 nM.
For “Corn Hageman factor inhibitor (from UniProt P01088)”, the Ki was 23 nM with Trypsin (Bos taurus) [7] and 2 nM in [8].
For MTI-2 (from UniProt P26780), the Ki in the data set with β-Trypsin (Bos taurus) is 0.01 nM.
On to Oryzacystatin-I (from UniProt P09229), for which the inhibitory constant (Ki) in the data set with Cathepsin H [9] is 1000 nM; with Cathepsin B [10], 79 nM; with Cathepsin H [11], 1000 nM; with Cathepsin L [12], 0.73 nM; in the data set with Cathepsin B [13], 79 nM; in the data set with Cathepsin L [14] it was 0.73 nM.
As for Corn cystatin-I (from UniProt P31726), the inhibition constant (Ki) with Cathepsin H [15] is 5.7 nM; with Cathepsin H [16] it was 5.7 nM; with Cathepsin L [17], 17 nM; in the data set with Cathepsin L [18] it was 17 nM.
Take MCEI-III (from UniProt P10296): the Ki in data set [19] was 4 nM.

The term Ki denotes the dissociation constant of the complex between target and ligand, obtained from inhibition or displacement.
